Assay [1] has as its target TGFβ1 (R&D systems) (UniProt P01137). In words: cell-based or functional assay.
In assay [2] the target is IL2Rβ and common γ chain expressed on 32Dβ cells. As to the kind of experiment: cell-based or functional assay.

UniProt P01137, sequence (P01137 279-390 limits assumed): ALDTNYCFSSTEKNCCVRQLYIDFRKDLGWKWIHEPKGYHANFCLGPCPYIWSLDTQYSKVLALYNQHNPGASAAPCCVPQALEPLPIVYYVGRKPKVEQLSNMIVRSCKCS

Regarding TGFR-Fc (R&D Systems) (Fc fusion), the IC50 for TGFβ1 activity in HEK-Blue TGFβ cells (QUANTI-Blue OD at 620-655 nM) in assay [1] worked out at 0.461 nM.

Turning to “recombinant IL-15 (from UniProt P40933 49-162) (ligand)”, the EC50 of 32Dβ cell proliferation (WST1, absorbance at 450 nM) in assay [2] worked out at 0.0106 nM.

(Values after US20250108112A1.)
